This series is described as follows: yeast display, Sf9 membrane polyspecificity reagent, FACS + sequencing; frameworks hold sequencing errors. In a few lines:
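Genes from sorted yeast were amplified by colony PCR, read by MiSeq 2 × 250 sequencing and filtered on CDR length. These cells carried a synthetic nanobody library in Saccharomyces cerevisiae BJ5465 and were sorted by FACS into low and high (top ~1%) gates on anti-HA and streptavidin fluorescence. Polyreactivity is labelled according to the gate of origin.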
On to “QVQLVESGGGLVQAGGSLRLSCAASGFTFGRNAMGWYRQAPGTERELVARITTGGSTNYADSVKGRFTISRDNAKYTVYLQLNSLKPEDTAVYYCAATYVSLALFWTYGYWGQGTQVTVSS”, for which the “polyreactivity (PSR sort gate)” value is given as “low polyreactivity”.

Take “QVQLVESGGGLVQAGGSLRLSCAASGFTFGRYAMGWYRQAPGKERELVAAITYTDGSTYYADSVKGRFTISRDNAKNTVYLQMNSLKPEDTAVYYCAATTLSFEGGKYWSKYDYWGQGTQVTVSS”: the “polyreactivity (PSR sort gate)” value is “low polyreactivity”.

With “QVQLVESGGGLVQAGGSLRLSCAASGFTFGRYAMGWYRQAPGKVRELVAGITSGGSTYYADSVKGRFTISRDNAKKTVYLQMNSLKPEDTAVYYGAKASAYGLANDYDYWGQGTQVTVSS”, the “polyreactivity (PSR sort gate)” value is on record as “low polyreactivity”.

With “QVQLVESGGGLVQAGGSLRLSCAASGFTFGRYAMGWYRQATGKERELVAAITWSGGSTHYADSVKGRFTISRDNAKNTVYLQMNSLKPEDTAVYYCAVRVIYWSGSQVSVEYYYWGQGTQVTVSS”, the “polyreactivity (PSR sort gate)” value is given as “low polyreactivity”.

Turning to “QVQLVESGGGLVQAGGSLRLSCAASGFTFGRYDMGWYRQAPGKERELVAAISSGGNTYYADSVKGRFTISRDNAKNTVYLQMNSLKPEDTAVNYCNARTSYYSRFDYWGQGTQVTVSS”, the “polyreactivity (PSR sort gate)” value is listed as “high polyreactivity”.

As to “QVQLVESGGGLVQAGGSLRLSCAASGFTFGSNAMGWYRQAPGKERELVAAINYSGVRTYYADSVKGRFTISRDNAKNTVYLQMNSLKPEDTAVYYCAKKRSKRISFDYWGQGTQVTVSS”, the “polyreactivity (PSR sort gate)” value was “high polyreactivity”.

Consider “QVQLVESGGGLVQAGGSLRLSCAASGFTFGSNDMGWYRQAPGKERELVAAINYSGVRTYYADSVKGRFTISRDNAKNTVYLQMNSLKPEDTAVYYCAKKRSKPISFDYWVQGTQVTVSS”, for which the “polyreactivity (PSR sort gate)” value is reported as “high polyreactivity”.

On to “QVQLVESGGGLVQAGGSLRLSCAASGFTFGSNVMGWYRQAPGKERELVATIRRGGSTNYADSVKGRFTISRDNAKNTVYLQMNSLKPEDTAVYYCATGYAVYLSRRDYWGQGTQVTVSS”, for which the “polyreactivity (PSR sort gate)” value is “high polyreactivity”.

For the sequence “QVQLVESGGGLVQAGGSLRLSCAASGFTFGSYAMGWYRQAPGKERELVAAISRGGTTYYADSVKGRFTVSRDNAKNTVYLQMNSLKPEDTAVYYCATALIVRGPSRYEYWGQGTQVTVSS”, the “polyreactivity (PSR sort gate)” value is “high polyreactivity”.

Turning to “QVQLVESGGGLVQAGGSLRLSCAASGFTFGSYAMGWYRQAPGTERELVADISRRGGRTYYADSVKGRFTISRDNAKNTVYLQMNSLKPEDTAVYYCNAVSYVYFYSSSYDYWGQGTQVTVSS”, the “polyreactivity (PSR sort gate)” value was “high polyreactivity”.

“QVQLVESGGGLVQAGGSLRLSCAASGFTFGTNAMGWDRQAPGKERELVAAISGSGGSTYYADSVKGRFTISRDNAMNTVYLQMNSLKPEDTAVYYCNKGRPRKVYSEGFGYWGQGTQVTVSS”: the “polyreactivity (PSR sort gate)” value is on record as “high polyreactivity”.

In the case of “QVQLVESGGGLVQAGGSLRLSCAASGFTFGVYAMGWYRQAPGKERELVAAISTTVGSTYYADSVKGRFTISRDNAKNTVYLQMNSLKPEDSAVYYCAAEYTGYINYYIYEYWGQGTQVTVSS”, the “polyreactivity (PSR sort gate)” value is “low polyreactivity”.

For “QVQLVESGGGLVQAGGSLRLSCAASGFTFGVYTMGWYRQAPGKERELVAAITSGGSTHYADSVKGRFTISRDNAKNTVYLQMNSLKPEDTAVYYCAARVRPRPQRIYGYWGQGTQVTVSS”, the “polyreactivity (PSR sort gate)” value is on record as “high polyreactivity”.

Consider “QVQLVESGGGLVQAGGSLRLSCAASGFTFGWYAMGWYRQAPGKDWEFVAAISRSGGSTYYADSVKGRFTISRDNAKNTVYLQMNSLKPEDTAVYYCAAYIIGDTHAEYDYWGQGTQVTVSS”, for which the “polyreactivity (PSR sort gate)” value is given as “high polyreactivity”.

“QVQLVESGGGLVQAGGSLRLSCAASGFTFGWYAMGWYRQAPGKERELVAAIDESGGTTYYADSVKGRFTISRDNAKNTVYLQMNSLKPEDTAVYYCAADKKTPYEDDYWGQGTQVTVSS”: the “polyreactivity (PSR sort gate)” value is listed as “low polyreactivity”.

For the sequence “QVQLVESGGGLVQAGGSLRLSCAASGFTFGWYDMGWYRKATGKERELVASISWSGSSTYYADSVKGRFTISRDNAKNTVYLQMNSLKPEDTAVYYCATPYWRRYDYWGQGTQVTVSS”, the “polyreactivity (PSR sort gate)” value is reported as “high polyreactivity”.

On to “QVQLVESGGGLVQAGGSLRLSCAASGFTFGYNAMGWYRQAPGKEREFVAAITKSGDSTYYADSVKGRFTISRDNAKNSVYLQMNSLKPEDTAVYYCAAQYRQRRHDYWGQGTQVTVSS”, for which the “polyreactivity (PSR sort gate)” value is on record as “high polyreactivity”.

As for “QVQLVESGGGLVQAGGSLRLSCAASGFTFGYYAMGCYRQAPGKERELVAAISWSGGSTYYADSVKGRFTISRDNAKNTVYLQMNSLKPEDSAVYYCAAQSYLGRTWLDYWGQGTQVTVSS”, the “polyreactivity (PSR sort gate)” value is reported as “high polyreactivity”.

“QVQLVESGGGLVQAGGSLRLSCAASGFTFGYYAMGWYRQAPGKERELVAAINYSGGSTYYADSVKGRFTISRDNEKNTVYLQMNSLKPEDTAVYYCAAAVLRTYVPDLYDYWGQGTQVTVSS”: the “polyreactivity (PSR sort gate)” value was “high polyreactivity”.

For “QVQLVESGGGLVQAGGSLRLSCAASGFTFGYYAMGWYRQAPGKERELVARISDGGSTNYADSVKGRFTISRDNAKNTVYLQMNSLKQEDTAVYYCAADDTRGREEYDYWGQGTQVTVSS”, the “polyreactivity (PSR sort gate)” value is listed as “high polyreactivity”.

For “QVQLVESGGGLVQAGGSLRLSCAASGFTFGYYAMGWYRQAPGKERELVASISSRGGSTNYADSVKGRFTISRDNAKNTVYLQMNSLKPEDTAVYYCNADYYYPLRSNKYYYWGQGTQVTVSS”, the “polyreactivity (PSR sort gate)” value is listed as “high polyreactivity”.

As to “QVQLVESGGGLVQAGGSLRLSCAASGFTFGYYAMGWYRQAPGKERELVATIDRGGGTSYADSVKGRFTISRDNAKNTVYLQMNSLKPEDTAVYYCNRAGYGAKARRYRSYWGQGTQVTVSS”, the “polyreactivity (PSR sort gate)” value was “high polyreactivity”.

As for “QVQLVESGGGLVQAGGSLRLSCAASGFTFGYYVMGWYRQEPGKERELVAAITVSGASTYYADSVKGRFTISRDNAKNTVYLQMNSLKPEDTAVYYCAKRGYFPALRQSYYYWGQGTQVTVSS”, the “polyreactivity (PSR sort gate)” value was “high polyreactivity”.

“QVQLVESGGGLVQAGGSLRLSCAASGFTFHDYAMGWYRPAPGKERELVAAITKTGGRTYYADSVKGRFTISRDNAKNTVYLQMNSLKPEVTAVYYCAAKSYWGQGTQVTVSS”: the “polyreactivity (PSR sort gate)” value was “high polyreactivity”.

As to “QVQLVESGGGLVQAGGSLRLSCAASGFTFHNNVMGWYRQAPGKERELVATISKSGGSTYYADYVKGRFTISRDNAKNTVYLQMKSLKPEDTAVYYCARRYRDYGRYGYWGQGTQVTVSS”, the “polyreactivity (PSR sort gate)” value is “high polyreactivity”.

Consider “QVQLVESGGGLVQAGGSLRLSCAASGFTFHNYAMGLYRQSPGKEREFVAAITRNTASTYYADSVKGRFTISRDNAKITVYLQLNSLKPEDTAVYYCAATDKKHRNAYDSWGQVTQVTVSS”, for which the “polyreactivity (PSR sort gate)” value is recorded as “low polyreactivity”.

“QVQLVESGGGLVQAGGSLRLSCAASGFTFHNYAMGWYRQAPGKEREFVAAITRNTASTYYADSVKGRFTISRDNAKNTVYLQMNSLKPEDTAVYYCAATDKKHRTAYDSWGQGTQVTVSS”: the “polyreactivity (PSR sort gate)” value is recorded as “low polyreactivity”.

Regarding “QVQLVESGGGLVQAGGSLRLSCAASGFTFHPNAMGWYRPAPGKERELVAAISTRGGSTAYADSVKGRFTISRDNAKNTVYLLMNSLKPEDTAVYYCAARTSSTKYYYWGQGTQVTVSS”, the “polyreactivity (PSR sort gate)” value is “high polyreactivity”.

Consider “QVQLVESGGGLVQAGGSLRLSCAASGFTFHRYDMVWYRQAPGKERELVAGITRRSGSTFYADSVKGRFTISRDNAKNTVYLQMNSLKPEDTAVYYCAATVPGMHWIYDYWGQGTQVTVSS”, for which the “polyreactivity (PSR sort gate)” value is reported as “high polyreactivity”.

For the sequence “QVQLVESGGGLVQAGGSLRLSCAASGFTFHSYAMGLYRQAPGKERELVAAISPGATTYYADSVKGRFTISRENANNTVYFKLNSLKPEDTAVYYFAASYQRVRDATVYTIYDYWGQGTQVTVSS”, the “polyreactivity (PSR sort gate)” value was “high polyreactivity”.

These data come from the nanobody polyreactivity screen of Harvey et al. (2022).
